The subject of the data set is Bacillus subtilis DB104 (SP-AmyQ fusion secretion). Briefly: AmyQ secretion efficiency, weighted average sort bin (1 = best secretion, 10 = worst) (bin number (weighted average, 1-10)); higher = lower secretion efficiency. In a few lines:
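In this assay, the secretion score is defined as the average bin number weighted by read frequency, normalised to beads per bin, with low-abundance sequences not counted. B. subtilis DB104 cells expressing mature AmyQ behind designed signal peptides (amyE-integrated) were enclosed with fluorescein-starch in ~65 nL alginate beads at about 0.3 cells per bead. Beads grew about 13 h at room temperature, were stained with nile red, and occupied beads went into 10 equally populated green/red fluorescence ratio bins by large-particle flow cytometry, whose amplicons were Illumina-sequenced.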

In the case of MKSKGSIMACLILFSFTITTFINTETFSAFSN, the AmyQ secretion efficiency came out at 7.43.

For MKNMSCKLVVSVTLFFSFLTIGPLIHAQNS, the AmyQ secretion efficiency turned out to be 1.06.

MKRLLVSLRVWMVFLMNWVTPDRKTTPSGAAAAVY: the AmyQ secretion efficiency came to 6.68.

Turning to MRKYTVIASILLSFLSVLRGGHHRSKAFPV, the AmyQ secretion efficiency worked out at 7.77.

MLKKKWMVGLLAGCLAAGEDDEEDAFATEN displayed an AmyQ secretion efficiency of 5.44.

On to MKSKGSIMACLILFSFTITTFINTETISGFSN, for which the AmyQ secretion efficiency stood at 6.11.

Consider MKKRITLLALLAVVAFAFTDSSKAKAAEA, for which the AmyQ secretion efficiency amounted to 3.06.

MKNMSCKLVVSVTLFFSFLTIGPLAHDQNS registered an AmyQ secretion efficiency of 6.5.

As for MTKLKMLSMLTVMIASLFIFSSQALDVQY, the AmyQ secretion efficiency was 6.18.

Regarding MKKRLIGFLVLVPALIMSGITLQEANKK, the AmyQ secretion efficiency was 7.31.

For the sequence MKRKQQKSLAISALSLGLLVSAPTASFAAES, the AmyQ secretion efficiency is 3.07.

In turn, MKLWMRKTLVVLFTIVTFGLVSPPAAMMADKP registered an AmyQ secretion efficiency of 1.82.

Sequence MKLSVKIAGVLTVAAAAMTAKMYMTAKGN displayed an AmyQ secretion efficiency of 6.8.

With MPYLKRVLLLLVTGLFMSLFAVTATHSAQTG, the AmyQ secretion efficiency amounted to 6.96.

Consider MKKIWIGMLAAAVLLLMVPKVSPAVPSGFSLADAA, for which the AmyQ secretion efficiency is 6.35.

Take MLCVMMLLFSAIAEDEVSAQAKDQ: the AmyQ secretion efficiency was found to be 6.57.

As to MKKKLAAGLTASAIVGTTLVVTPAEAATR, the AmyQ secretion efficiency is 2.36.

The sequence MKKRMMMIMFFGPIILAFILFAGAIAIPS came in with an AmyQ secretion efficiency of 7.34.

As to MNKKYFVLIVCIIFTSALFPTFSSVTHAQG, the AmyQ secretion efficiency was 1.15.

With MQRRQRYRQRVIVIAALITFNVRNASPG, the AmyQ secretion efficiency came out at 8.93.

Consider MKRIRIPMTLALGAALTIAPLSFASTEEN, for which the AmyQ secretion efficiency was determined as 8.25.

MRSYIKVLTMCFLGLILFVPTVLADNS: the AmyQ secretion efficiency worked out at 2.19.

In the case of MMITWNVCLTALLSVLLVAGSVPFHAEAKKP, the AmyQ secretion efficiency came out at 3.89.

MKKWIYVKKKKKKAGIGGFSVHAASS had an AmyQ secretion efficiency of 6.75.

In turn, MRNLTKTSLLLAGLCTAAEEEEEDHASAEES had an AmyQ secretion efficiency of 6.56.

Consider MKKIWIGMLAAAVLLLMVPKVMLADAA, for which the AmyQ secretion efficiency stood at 4.26.

MKVCQKSIVRFLVFLIIFLFVIGTSVPFMANAQSD: the AmyQ secretion efficiency was found to be 2.68.

The sequence MKKKQVSHAIIISVMLSFVIAVFHTIHKSELTP had an AmyQ secretion efficiency of 4.63.

MKKQIITATTAVVLGSTLFARKKRKKASAQSI had an AmyQ secretion efficiency of 7.27.

Consider MKSKWMSGLLLVAVGTQVMVHAGET, for which the AmyQ secretion efficiency came to 5.76.

In the case of MPIKKKVMMCLAVTLVFGSMSFPTLTNWGGFKE, the AmyQ secretion efficiency came to 7.59.

MKKTIMSFKRKKALSTTAFGAHASAKEI registered an AmyQ secretion efficiency of 7.79.

In turn, MAIIIAIIAAVIVIAALITFNVRNDSPG had an AmyQ secretion efficiency of 6.52.

Consider MLTKRLLTIYIMLLMLIAWFPGAAQAEEK, for which the AmyQ secretion efficiency came to 1.61.

As to MLKRTSFVSSLFISSAVLLSILLPSGQAHADDD, the AmyQ secretion efficiency is 4.33.

MRKAVLLSLIMLIAGFLISFSFQM registered an AmyQ secretion efficiency of 7.21.

As for MKKRKRRNFKRFIAAFLVLALMIDVLAKST, the AmyQ secretion efficiency stood at 7.65.

With MKLAKRVSALTPSTTLAIEEEEAKAKEL, the AmyQ secretion efficiency is 7.01.

For the sequence MFNRLFRVCFLAALIMAFTLPNSGYAQKP, the AmyQ secretion efficiency was 2.99.

MKKAAAVLLSLGLVFGFSYGAGHVYEAKTK: the AmyQ secretion efficiency was 5.94.

The sequence MTKKAWFLPLVCVLLISGWLAPAASASSQTT returned an AmyQ secretion efficiency of 1.17.

MKKKQVMLALTAAAGLGLTALHSAPAEKAAPL came in with an AmyQ secretion efficiency of 6.32.

Take MIAYFGKCLLLVTIMFLGVLFGMSQANHG: the AmyQ secretion efficiency was determined as 4.69.

For the sequence MKLSVKIAGVLTVAAAAMTAKMYHTAKGN, the AmyQ secretion efficiency was 6.87.

Take MMSLLVSLRVWMVFLMNWVTPDRKTAAAAVY: the AmyQ secretion efficiency turned out to be 5.61.

The sequence MKRKLLSSLAISALSLGLLVSAPTALFAAES yielded an AmyQ secretion efficiency of 2.49.

The sequence MRKRKKKSMLTVMIASLFIFSSQALAVQY displayed an AmyQ secretion efficiency of 6.79.

In turn, MKLSVKIAGVLTVAAAAMTAKMYNTAKGN gave an AmyQ secretion efficiency of 6.07.

Turning to MKSKGSIMACLILFSFTITTFINTETISAFSD, the AmyQ secretion efficiency was 6.02.

The sequence MKLAKRVRRKRPSTTLAITAKAKEL returned an AmyQ secretion efficiency of 6.87.

As to MKRLLVSLRVWMVFLMNWVTPDRKTHAAAVY, the AmyQ secretion efficiency is 6.55.

Consider MTKRGIQAFAGGIYLTDEDQAAAV, for which the AmyQ secretion efficiency stood at 7.17.

For MKIRKILLSSALSFGMLISAVPALLAGT, the AmyQ secretion efficiency was determined as 4.82.

With MGSGTSMLFSTLALAAGMTAAAAGGAGTIHAQQP, the AmyQ secretion efficiency worked out at 2.01.

Consider MKVLLSALLLLLFAFEPSCSGKKL, for which the AmyQ secretion efficiency amounted to 5.53.

MLKKKWMVGLLAGCLAAGGFSYNAFETEN displayed an AmyQ secretion efficiency of 6.72.

With MRKKRVITCVMAASLTLGSLLPAGYASAASD, the AmyQ secretion efficiency turned out to be 1.13.

For MFRMIVRMTLPLLIVCLAFSSFSASARAASE, the AmyQ secretion efficiency came to 1.61.

Take MKRKLLSSLAISALSLGLLVKRRKKKSFAAES: the AmyQ secretion efficiency was 7.18.

In the case of MRKNRILALFVLSLGLLSFMVTPVSRASK, the AmyQ secretion efficiency worked out at 8.98.

For the sequence MLKRTSFVSSLFISSAVLLSILLPSGQVHAQSA, the AmyQ secretion efficiency came to 1.69.

For the sequence MKWMCSICCAAVLLAGEDEDEDAQAEAV, the AmyQ secretion efficiency amounted to 8.04.

Sequence MKKSQYFRKRRCKRVLFSVHPIAAAAADS registered an AmyQ secretion efficiency of 7.95.

Regarding MRPVFPLILSAVLFLSCFFGARQTEASGSKR, the AmyQ secretion efficiency was found to be 1.87.

In the case of MKVPKTMLLSTAAGLLLSLTATSPPFPPVSAHYV, the AmyQ secretion efficiency turned out to be 4.04.

The sequence MKKVILAAFILVGSTLGAFSFSSDASAKHV showed an AmyQ secretion efficiency of 2.08.

As to MKRKLLSSLAISALSLGLLVSAPTASFADDE, the AmyQ secretion efficiency is 5.75.

Consider MRKKCSVCLWILVLLLSCKKRKKRAYAATS, for which the AmyQ secretion efficiency was found to be 6.88.

The sequence MKKWMITIAMLILAGIALFVFIDPLKSHKT registered an AmyQ secretion efficiency of 6.61.

MRFTKVVGFLSVLGLAAVFPLTTQAEKA gave an AmyQ secretion efficiency of 4.74.

For MKKQIITATTAVVLGSTLFAGAMSAQSI, the AmyQ secretion efficiency was 1.54.

MFFKKTVVSALSISALALSVSGVASAHEI gave an AmyQ secretion efficiency of 3.

Take MKKWIYVVLVLSIAGIGGFSVHSASS: the AmyQ secretion efficiency is 5.94.

For the sequence MFKKHTRKRKIIFLLASAVLAKPIEAHTV, the AmyQ secretion efficiency is 7.04.

In the case of MMKKLFHSTLIVLLFFSFFGVQPLHAKKQ, the AmyQ secretion efficiency turned out to be 2.57.

The sequence MAIIIAIIAAVIVIAALITFNRNASPG showed an AmyQ secretion efficiency of 6.99.

The sequence MKLKKRVSMSSMFLVALTMCGGLFVTPAKAVKT displayed an AmyQ secretion efficiency of 1.95.

MPYLKRVLLLLVTGLFMSLFAVTATESAQTG displayed an AmyQ secretion efficiency of 4.4.

MKKKLAAGLTASAIVGTTLVVTPAEAADE had an AmyQ secretion efficiency of 3.03.

Sequence MNLRKILLSSALSLVSAAPVLATSS had an AmyQ secretion efficiency of 3.92.

For the sequence MFKFKKNFLVGLSAALMSIEDEEDDASAAST, the AmyQ secretion efficiency stood at 6.33.

Consider MLSSKWMVGLLAGCLAAGGFSYNAFATEN, for which the AmyQ secretion efficiency was found to be 3.83.

Consider MKKAFLVFLSVVLVTTVFLRKKRRKVAQAKQL, for which the AmyQ secretion efficiency was 6.27.

For MKKVLMAFIICLSLILDVLAAPPSGAKAESV, the AmyQ secretion efficiency was found to be 1.95.

MKRLFMKAKLVLFAVVFVFAVKGAPAKAETH returned an AmyQ secretion efficiency of 2.67.

As to MRPVFPLILSAVLFLSCFFGARQTEISASKR, the AmyQ secretion efficiency stood at 2.64.

In the case of MKKKIVAGLAVSAVVDEDEEAAPAEAKTI, the AmyQ secretion efficiency turned out to be 5.93.

The sequence MLKRTSFVSSLFISSAVLLSILLPSGQTHAQSA gave an AmyQ secretion efficiency of 1.61.

Consider MKVLLSALLLLLFAFEPSASDKKL, for which the AmyQ secretion efficiency worked out at 6.18.

Sequence MKRQGKSKSYAAVILSGWFIADHQTHSQEM came in with an AmyQ secretion efficiency of 7.16.

For MLCVMMLLFSAIASFPVSAQAAPQ, the AmyQ secretion efficiency was 4.18.

MHLIRAAGAVCLAVVLIAGCRDEEDEHQAEGENT came in with an AmyQ secretion efficiency of 4.66.

Consider MRFTKVRRKKSVLGLAAVFPLTAQAEKA, for which the AmyQ secretion efficiency came out at 7.85.

In turn, MRGKSAVLLSLIMLIAGFLDDDEEDSFSFQM registered an AmyQ secretion efficiency of 8.01.

For the sequence MHLIRAAGAVCLAVVLIAGCRFNEDQHQAENENT, the AmyQ secretion efficiency was 5.95.

MFRKLLSSLAISALSLGLLVSAPTASFAAES yielded an AmyQ secretion efficiency of 5.47.

For MKVPKTMLLSTAAGLLTATSVSAHYV, the AmyQ secretion efficiency turned out to be 6.58.

As for MKKRLIAPMLLSAASLAFFAMSGSAQHAAY, the AmyQ secretion efficiency was determined as 7.18.

With MKKKQVMLRKKKAAGLGLTALHSAPAAKAAPL, the AmyQ secretion efficiency amounted to 7.14.

Regarding MRSYIKVKKMCFLGLILFVPTALADNS, the AmyQ secretion efficiency stood at 3.9.

As to MPYLKRVLLLLVTGLFMSLFAVTATISAQTG, the AmyQ secretion efficiency was 1.51.

The sequence MKRTWNVCLTALLSVLLVAPFHAEAKKP gave an AmyQ secretion efficiency of 4.3.

The sequence MKSCKQLIVCSLAAILLLIPSVSFAADD had an AmyQ secretion efficiency of 2.66.

Sequence MKLSVKIAGVLTVAAAAMEDDMYATAKGN showed an AmyQ secretion efficiency of 6.49.

MKWMCSICCAAVLLAGGATQAEAV came in with an AmyQ secretion efficiency of 2.86.

The sequence MNLLFNLSMLTVMIASVFIFSSHALAAQY yielded an AmyQ secretion efficiency of 2.94.

For MKLSVKIAGVLTVAAAAMSTAKMYATAKGN, the AmyQ secretion efficiency was 7.14.

Consider MLCVMMLLFSAIASFPVSLQAKDQ, for which the AmyQ secretion efficiency amounted to 5.46.

MKKRLIGFLVLVPALIMSGITLKEANKK displayed an AmyQ secretion efficiency of 6.33.
